Laboratory results: patent US7045613 (Amgen, dated 2006)

T1: Human IKK-α containing an N-terminal Flag epitope tag (human, UniProt O15111 1-745)
T1 construct: Transiently expressed in 293 cells for coimmunoprecipitation; also called IκB Kinase
T1 sequence: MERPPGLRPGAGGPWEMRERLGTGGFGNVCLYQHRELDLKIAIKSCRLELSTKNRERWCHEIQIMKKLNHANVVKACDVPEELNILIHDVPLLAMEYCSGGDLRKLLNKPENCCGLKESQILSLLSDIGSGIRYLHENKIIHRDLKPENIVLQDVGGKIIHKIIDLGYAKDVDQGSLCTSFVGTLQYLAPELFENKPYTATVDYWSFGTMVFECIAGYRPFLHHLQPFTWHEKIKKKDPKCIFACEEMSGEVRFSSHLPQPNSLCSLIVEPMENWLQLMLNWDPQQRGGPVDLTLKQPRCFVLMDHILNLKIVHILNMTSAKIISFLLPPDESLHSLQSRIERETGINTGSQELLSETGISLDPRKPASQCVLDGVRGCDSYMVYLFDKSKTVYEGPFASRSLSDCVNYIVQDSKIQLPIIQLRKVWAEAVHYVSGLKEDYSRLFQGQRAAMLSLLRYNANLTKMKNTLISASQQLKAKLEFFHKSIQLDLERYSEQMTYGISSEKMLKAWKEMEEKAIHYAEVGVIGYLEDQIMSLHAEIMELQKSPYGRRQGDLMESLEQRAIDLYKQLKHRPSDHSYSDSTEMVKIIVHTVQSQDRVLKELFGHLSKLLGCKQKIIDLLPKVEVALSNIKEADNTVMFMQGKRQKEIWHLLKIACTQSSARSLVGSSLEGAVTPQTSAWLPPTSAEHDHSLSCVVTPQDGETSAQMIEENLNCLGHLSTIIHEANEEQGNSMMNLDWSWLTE


Target: T1, Human IKK-α containing an N-terminal …
Assay: coimmunoprecipitation from 293 cell lysates, anti-Flag IP, anti-HA immunoblot
Source text: Human IKK-α containing an N-terminal Flag epitope tag was transiently coexpressed in 293 human embryonic kidney cells with Myc epitope-tagged NIK or HA epitope-tagged TRAF proteins. Cell lysates were immunoprecipitated using a monoclonal antibody against the Flag epitope, and coprecipitating NIK or TRAF proteins were detected by immunoblot analysis with an anti-Myc or anti-HA monoclonal antibodies.

| binding result | Binder |
| --- | --- |
| no binding | HA epitope-tagged TRAF2 (other, UniProt Q12933 1-501, looked up, not shown: small tags and cut ends, Transiently coexpressed in 293 cells) MAAASVTPPGSLELLQPGFSKTLLGTKLEAKYLCSACRNVLRRPFQAQCGHRYCSFCLASILSSGPQNCAACVHEGIYEEGISILESSSAFPDNAARREVESLPAVCPSDGCTWKGTLKEYESCHEGRCPLMLTECPACKGLVRLGEKERHLEHECPERSLSCRHCRAPCCGADVKAHHEVCPKFPLTCDGCGKKKIPREKFQDHVKTCGKCRVPCRFHAIGCLETVEGEKQQEHEVQWLREHLAMLLSSVLEAKPLLGDQSHAGSELLQRCESLEKKTATFENIVCVLNREVERVAMTAEACSRQHRLDQDKIEALSSKVQQLERSIGLKDLAMADLEQKVLEMEASTYDGVFIWKISDFARKRQEAVAGRIPAIFSPAFYTSRYGYKMCLRIYLNGDGTGRGTHLSLFFVVMKGPNDALLRWPFNQKVTLMLLDQNNREHVIDAFRPDVTSSSFQRPVNDMNIASGCPLFCPVSKMEAKNSYVRDDAIFIKAIVDLTGL |
| no binding | HA epitope-tagged TRAF3 (other, UniProt Q13114 1-568, looked up, not shown: small tags and cut ends, Transiently coexpressed in 293 cells) MESSKKMDSPGALQTNPPLKLHTDRSAGTPVFVPEQGGYKEKFVKTVEDKYKCEKCHLVLCSPKQTECGHRFCESCMAALLSSSSPKCTACQESIVKDKVFKDNCCKREILALQIYCRNESRGCAEQLMLGHLLVHLKNDCHFEELPCVRPDCKEKVLRKDLRDHVEKACKYREATCSHCKSQVPMIALQKHEDTDCPCVVVSCPHKCSVQTLLRSELSAHLSECVNAPSTCSFKRYGCVFQGTNQQIKAHEASSAVQHVNLLKEWSNSLEKKVSLLQNESVEKNKSIQSLHNQICSFEIEIERQKEMLRNNESKILHLQRVIDSQAEKLKELDKEIRPFRQNWEEADSMKSSVESLQNRVTELESVDKSAGQVARNTGLLESQLSRHDQMLSVHDIRLADMDLRFQVLETASYNGVLIWKIRDYKRRKQEAVMGKTLSLYSQPFYTGYFGYKMCARVYLNGDGMGKGTHLSLFFVIMRGEYDALLPWPFKQKVTLMLMDQGSSRRHLGDAFKPDPNSSSFKKPTGEMNIASGCPVFVAQTVLENGTYIKDDTIFIKVIVDTSDLPDP |
